Measured values: article PMC8274395 (Biochemistry, 2021)

Target: the molecule itself
Assay: crystal structure

B1: Cj1441, UDP-glucose 6-dehydrogenase from Campylobacter jejuni NCTC 11168 (enzyme)
chain: MKIVIVGIGYVGLANAILFSKNNENEVVLLDIDENKIQSINNHKSPIKDKLIEKFFVQNISKLHATSNIKEAYFNADFAVIATPTDYDEQLNFFDTRSIENVLKDIKNINSKINVIIKSTVPIGYTKTIKQKFNMSNIVFSPEFLREGSALYDSLYPSRIIIGDKSVLGKTIGDLFLKNIEKKNVDIFYMDSDEAESVKLFSNTYLAMRVGFFNEVDSYARKHNLNSADIIKGISADDRIGKYYNNPSFGYGGYCLPKDTKQLLANFYNIPNSLIKAIVETNEIRKKFITQLILEKKPNILGIYRLIMKQNSDNFRNSVIIDIIKYLQEYNSNIELIIYEPLVKEKKFLNIKVENDFNVFGAKVDLIIANRFDDKLKEIKDKVFSADVFYTDI
  binding result: binds
